Laboratory results published in patent publication US6610479.

Assays:
[1] = target: streptavidin (on Dynabeads) (UniProt P22629)
[2] = target: human serum albumin (HSA) (UniProt P02768)
[3] = target: human IgG (on Sepharose, Pharmacia) (human); experiment: cell-based or functional assay

Sequence of UniProt P22629 (P22629 whole entry, looked up): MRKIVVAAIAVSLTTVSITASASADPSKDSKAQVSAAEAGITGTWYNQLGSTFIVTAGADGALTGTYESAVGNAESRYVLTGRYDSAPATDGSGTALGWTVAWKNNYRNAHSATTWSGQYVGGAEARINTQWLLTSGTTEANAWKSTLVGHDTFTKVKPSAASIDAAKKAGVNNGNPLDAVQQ

TagTaq fusion protein (Bio-His6-ABP fused to Taq DNA polymerase I residues 3-832)
hot-start effect in kRAS PCR (primer-dimer formation) [1]: All the immobilised enzymes show hot-start effect in PCR with regard to preventing primer-dimer formation
hot start PCR of K-ras (primer-dimer formation) [2]: using either a conventional hot start procedure (lane 8) or immobilized TagTaq polymerase (lanes 1 to 3), high yields of essentially pure, full-length PCR products free from primer-dimers are obtained
hot-start effect in kRAS PCR (primer-dimer formation) [2]: All the immobilised enzymes show hot-start effect in PCR with regard to preventing primer-dimer formation
primer extension (190 nt product) at 60° C., immobilized enzyme [2]: TagTaq protein: HSA-Sepharose incubated with the substrate at the same temperature resulted in only very small amounts of the 190 nt extension product
relative polymerase activity at 45-75° C. and after 95° C. [2]: TagTaq indeed is active in the presence of HSA-Sepharose, but only after incubation at a temperature high enough to break the ABP-HSA affinity interaction

Z-ΔTaq fusion protein (from UniProt P0AD92 1-8; P38507 212-269; P19821 236-832) (enzyme)
Peak area of the 190-bp extension product, heat-released enzyme (95° C.-treated Z-ΔTaq-human IgG-Sepharose) [3]: 8380
Peak area of the 190-bp extension product, immobilized enzyme (polymerase activity at 50° C.) [3]: 594
increase of the area of the 190-peak, free or heat-released enzyme against enzyme on beads heated only to 50° C. [3]: > 15 times
